Article PMC9897663
Positions count from the first letter of the chain named. Names may count otherwise.

Legend:
Assay in all cases: purified protein
Conditions in all cases: potassium phosphate pH 7.5, 22-23 °C
[1] = substrate: O=C(Nc1ccn([C@H]2C[C@H](O)[C@@H](CO)O2)c(=O)n1)c1ccccc1
[2] = substrate: O=C(Nc1ccn([C@H]2C[C@H](O)[C@@H](CO)O2)c(=O)n1)c1ccccc1; assay type: biochemical, uncultured bacterium
[3] = substrate: Nc1ccn([C@H]2C[C@H](O)[C@@H](CO)O2)c(=O)n1; assay type: biochemical, uncultured bacterium
[4] = substrate not given, inferred from the stated about twofold rise over wild type

B1: CDA_F14 (uncultured bacterium; G81L) (protein)
chain: MNKEDLLKKAFEAMENAYAPYSNYHVGACALMKDGTTFLGANIENASYGATNCGERSAIFAAYSNGYRADDIEALAIVTDLDRVGAPCGICRQVLSELLNDNTPIYLSNGKETLEKTIDELLPMRFTKEDLL
B1 was tested, and the Km [1] was “(8.66 ± 3.8) × 10^-4 M” and the kcat [1] was “(7.89 ± 3.08) × 10^-1 s^-1”.

B2: CDA_F14 (uncultured bacterium; F126W) (protein)
chain: B1 chain with L81G, F126W
notes: recombinant in E. coli HMS174 delta-pyrF delta-cdd, purified; homotetramer, one Zn per subunit; active site formed by three subunits
B2 was tested, and the Km [2, 4] was “(2.11 ± 0.38) × 10^−4 M”.

B3: CDA_F14 (uncultured bacterium; F126A) (protein)
chain: B1 chain with L81G, F126A
B3 was tested, and the Km [1, 4] was “(2.59 ± 0.73) × 10^−4 M”.

B4: CDA_F14 (uncultured bacterium; G81L/G85I) (protein)
chain: B1 chain with G85I
In the case of B4, the Km [1] is reported as “(4.93 ± 1.3) × 10^-4 M” and the kcat [1] is reported as “(4.14 ± 0.88) × 10^-2 s^-1”.

B5: CDA_F14 (uncultured bacterium) (protein)
chain: B1 chain with L81G
notes: as for B2
In the case of B5, the Km [3] is reported as “(1.95 ± 0.36) × 10^−4 M”, the kcat [3] is reported as “(24.4 ± 1.71) × 10^−1 s^−1” and the Km [2] is reported as “(1.15 ± 0.16) × 10^−4 M”. For the same protein, the kcat [2] was “(5.04 ± 0.4) × 10^−1 s^−1”.
